# In PMC5093063:
# How the values were obtained:
# Assay in all cases: SEC
# [1] = target: Chimeric IN F-F-H (NTD and CCD of FIV, CTD of HIV-1) (FIV (Petaluma) | HIV-1) (UniProt P12497)
# [2] = target: Chimeric IN F-H-F (NTD and CTD of FIV, CCD of HIV-1) (FIV (Petaluma) | HIV-1) (UniProt P12497)
# [3] = target: Chimeric IN F-H-H (NTD of FIV, CCD and CTD of HIV-1) (FIV (Petaluma) | HIV-1) (UniProt P12497)
# [4] = target: Chimeric IN H-F-F (NTD of HIV-1, CCD and CTD of FIV) (HIV-1 | FIV (Petaluma)) (UniProt P12497)
substance,measurement,setting,value
"Chimeric IN F-F-H (NTD and CCD of FIV, CTD of HIV-1) (from UniProt P12497 211-289) (enzyme)",stoichiometry N,[1],2
"Chimeric IN F-H-F (NTD and CTD of FIV, CCD of HIV-1) (from UniProt P12497 53-210) (enzyme)",stoichiometry N,[2],2
"Chimeric IN F-H-H (NTD of FIV, CCD and CTD of HIV-1) (from UniProt P12497) (enzyme)",stoichiometry N,[3],2
"Chimeric IN H-F-F (NTD of HIV-1, CCD and CTD of FIV) (from UniProt P12497 2-52) (enzyme)",stoichiometry N,[4],2
